# T1: Reference peptide no. 44
# T1 construct: second library: peptide 12 with F(62) to Ala; also called peptide 44
# T1 peptide: PKLTRMLTAKFYMPK
# T2: Reference peptide no. 10
# T2 construct: hIL-2 15-mer, first library, on microarray; also called peptide 10
# T2 peptide: INNYKNPKLTRMLTF
# T3: Reference peptide no. 13
# T3 construct: hIL-2 15-mer, first library, on microarray; also called peptide 13
# T3 peptide: TRMLTFKFYMPKKAT
# T4: Reference peptide no. 45
# T4 construct: second library: peptide 13 with F(62) to Ala; also called peptide 45
# T4 peptide: TRMLTAKFYMPKKAT
# T5: Reference peptide no. 47
# T5 construct: second library: peptide 11 with Y(65) to Ala; also called peptide 47
# T5 peptide: YKNPKLTRMLTFKFA
# T6: Reference peptide no. 52
# T6 construct: second library: peptide 11 with F(62) and Y(65) to Ala; also called peptide 52
# T6 peptide: YKNPKLTRMLTAKFA
# T7: Reference peptide no. 11
# T7 construct: hIL-2 15-mer, first library, on microarray; also called peptide 11
# T7 peptide: YKNPKLTRMLTFKFY
# T8: Reference peptide no. 12
# T8 construct: hIL-2 15-mer, first library, on microarray; also called peptide 12
# T8 peptide: PKLTRMLTFKFYMPK
# T9: Reference peptide no. 43
# T9 construct: second library: peptide 11 with F(62) to Ala; also called peptide 43
# T9 peptide: YKNPKLTRMLTAKFY
# T10: Reference peptide no. 42
# T10 construct: second library: peptide 10 with F(62) to Ala; also called peptide 42
# T10 peptide: INNYKNPKLTRMLTA
# T11: Reference peptide no. 49
# T11 construct: second library: peptide 13 with Y(65) to Ala; also called peptide 49
# T11 peptide: TRMLTFKFAMPKKAT
# T12: murine IL-2 (mouse, UniProt P04351 21-169)
# T12 construct: also called mouse IL-2; mIL-2
# T12 sequence (looked up): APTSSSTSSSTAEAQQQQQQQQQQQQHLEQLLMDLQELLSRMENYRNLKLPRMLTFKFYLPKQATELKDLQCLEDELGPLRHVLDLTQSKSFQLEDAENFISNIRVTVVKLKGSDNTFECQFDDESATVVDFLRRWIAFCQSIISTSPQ
# T13: Reference peptide no. 34
# T13 construct: hIL-2 15-mer, first library, parental Cys replaced by Ser, on microarray; also called peptide 34
# T13 peptide: ETTFMSEYADETATI
# T14: Reference peptide no. 5
# T14 construct: hIL-2 15-mer, first library, on microarray; also called peptide 5
# T14 peptide: QLEHLLLDLQMILNG
# T15: Reference peptide no. 60
# T15 construct: second library: peptide 24 with its first Leu replaced by Ala as printed (by count this is L90, not L92); also called peptide 60
# T15 peptide: ANLAQSKNFHLRPRD
# T16: Reference peptide no. 25
# T16 construct: hIL-2 15-mer, first library, on microarray; also called peptide 25
# T16 peptide: AQSKNFHLRPRDLIS
# T17: Reference peptide no. 9
# T17 construct: hIL-2 15-mer, first library, on microarray; also called peptide 9
# T17 peptide: LNGINNYKNPKLTRM
# B1: NARA1 (antibody, mouse IgG2a, kappa, V domains shown)
# VH: QVQLQQSGAELVRPGTSVKVSCKASGYAFTNYLIEWVKQRPGQGLEWIGVINPGSGGTNYNEKFKGKATLTADKSSSTAYMQLSSLTSDDSAVYFCARWRGDGYYAYFDVWGAGTTVTVSS
# VL: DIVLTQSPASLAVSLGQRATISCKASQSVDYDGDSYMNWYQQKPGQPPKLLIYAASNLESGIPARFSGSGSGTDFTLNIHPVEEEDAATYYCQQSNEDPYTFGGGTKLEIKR
# notes: Mouse monoclonal from hybridoma; Isotype controls used were mouse IgG2a; also called anti-IL2 (NARA1) antibody; monoclonal antibody NARA1
# Experiments:
# Reference peptide no. 44 = biological target: T1, Reference peptide no. 44; test: peptide microarray (RepliTope), Ala mutagenesis set
# Reference peptide no. 10 = biological target: T2, Reference peptide no. 10; test: as above
# Reference peptide no. 13 = biological target: T3, Reference peptide no. 13; test: as above
# Reference peptide no. 45 = biological target: T4, Reference peptide no. 45; test: as above
# Reference peptide no. 47 = biological target: T5, Reference peptide no. 47; test: as above
# Reference peptide no. 52 = biological target: T6, Reference peptide no. 52; test: as above
# Reference peptide no. 11 = biological target: T7, Reference peptide no. 11; test: as above
# Reference peptide no. 12 = biological target: T8, Reference peptide no. 12; test: as above
# Reference peptide no. 43 = biological target: T9, Reference peptide no. 43; test: as above
# Reference peptide no. 42 = biological target: T10, Reference peptide no. 42; test: as above
# Reference peptide no. 49 = biological target: T11, Reference peptide no. 49; test: as above
# murine IL-2 = biological target: T12, murine IL-2; test: SPR, NARA1 amine-coupled to a GLM chip, mouse IL-2 as analyte at 10, 3.3, 1.1, 0.37, 0.123 and 0.041 nM
# human interleukin-2 = biological target: T18, human interleukin-2 (human, UniProt P60568 21-153); test: SPR, antibody amine-coupled on GLM chip, hIL-2 in solution
# T18 construct: also called hIL-2; human IL-2
# Procedure: For this experiment an amine coupling GLM chip was used. The activation of the carboxylic acid groups in the chip was done using a mix of 1-ethyl-3-3-dimethylaminopropyl carbodiimide hydrochlorid (EDC at 0.2 M) and sulfo N-hydroxysulfosuccinimids (s_NHS at 0.05M) at […] for 420 seconds (s). […] Deactivation was followed adding ethanolamine HCl at […] for 300 s. Finally human IL-2 was added at different concentrations (starting from 100 nM and followed by three-fold dilutions) at […], 600 s association, and 240 s dissociation.
# In order to characterize the binding properties of the anti-human IL-2 mAbs the binding to human interleukin-2 was tested with surface plasmon resonance binding assays.
# Reference peptide no. 34 = biological target: T13, Reference peptide no. 34; test: peptide microarray (RepliTope), 15-mers
# Procedure: (§1) Additional incubations are with unrelated antibodies from the same isotype (mouse control IgG2a/lambda and mouse control IgG2a/kappa), and secondary antibodies (anti-mouse IgG (Thermo 84545, label DL650) or anti-mouse IgG (JIR 115-175-072, Label Cy5)) to assess unspecific binding due to the detection antibody. The experiments are performed essentially as described in Maksimov P, et al. 2012, PLoS One 7:e34212. doi:10.1371/journal. pone. 0034212.
# (§2) The determination of peptide-antibody binding was performed by RepliTope-analysis where the peptide microarray (triplicate) was incubated with the primary antibody followed by a fluorescently labelled secondary antibody directed against the Fc-part of the primary one. All steps were performed on a TECAN microarray processing station enabling highly reliable and reproducible washing and incubation steps. After performing the incubation steps and subsequent to the final washing steps (to remove the unbound secondary antibodies) the microarrays were dried using a nitrogen stream and scanned in a high resolution microarray scanning system with appropriate wavelength settings. Control incubations were performed with an unrelated antibody having the same isotype to exclude false positive signals.
# (§3) The resulting images were analyzed und quantified using spot-recognition software GenePix (Molecular Devices). For each spot, the mean signal intensity was extracted (between 0 and 65535 arbitrary units). For further data evaluation, the MMC2 values were determined. The MMC2 equals the mean value of all three instances on the microarray. Except the coefficient of variation (CV)—standard-deviation divided by the mean value—is larger 0.5, in this case the mean of the two closest values (MC2) is assigned to MMC2.
# Reference peptide no. 5 = biological target: T14, Reference peptide no. 5; test: peptide microarray (RepliTope), 15-mers
# Procedure: as §1, §2, §3
# Reference peptide no. 60 = biological target: T15, Reference peptide no. 60; test: peptide microarray (RepliTope), 15-mers
# Procedure: as §1, §2, §3
# Reference peptide no. 25 = biological target: T16, Reference peptide no. 25; test: peptide microarray (RepliTope), 15-mers
# Procedure: as §1, §2, §3
# Reference peptide no. 9 = biological target: T17, Reference peptide no. 9; test: peptide microarray (RepliTope), 15-mers
# Procedure: as §1, §2, §3
# T18 sequence (P60568 21-153 limits assumed): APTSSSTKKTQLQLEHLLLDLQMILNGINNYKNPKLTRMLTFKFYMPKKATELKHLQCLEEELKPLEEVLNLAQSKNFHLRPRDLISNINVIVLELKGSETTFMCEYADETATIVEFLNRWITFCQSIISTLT
binder,measurement,setting,value
B1,signal intensity after subtraction of control signal,Reference peptide no. 44,432 AU
same,signal intensity after subtraction of control signal,Reference peptide no. 10,20900 AU
same,signal intensity after subtraction of control signal,Reference peptide no. 13,224 AU
same,signal intensity after subtraction of control signal,Reference peptide no. 45,0 AU
same,signal intensity after subtraction of control signal,Reference peptide no. 47,251 AU
same,signal intensity after subtraction of control signal,Reference peptide no. 52,238 AU
same,signal intensity after subtraction of control signal,Reference peptide no. 11,1190 AU
same,signal intensity after subtraction of control signal,Reference peptide no. 12,1130 AU
same,signal intensity after subtraction of control signal,Reference peptide no. 43,507 AU
same,signal intensity after subtraction of control signal,Reference peptide no. 42,162 AU
same,signal intensity after subtraction of control signal,Reference peptide no. 49,1490 AU
same,binding result,murine IL-2,no binding (tested: 10 nM)
same,Kd,human interleukin-2,1.2 nM
same,koff,human interleukin-2,2.08e-05 s⁻¹
same,binding result,Reference peptide no. 34,no binding
same,binding result,Reference peptide no. 5,no binding
same,binding result,Reference peptide no. 60,no binding
same,binding result,Reference peptide no. 25,no binding
same,binding result,Reference peptide no. 9,no binding

# — patent US20170183403A1 (UNIVERSIT T Z RICH, published 2017)
